Measurements taken from PMC6423188, “HYNIC and DOMA conjugated radiolabeled bombesin analogs as receptor-targeted probes for scintigraphic detection of breast tumor” (EJNMMI Research, 2019).

Legend:
[1] = test system: MDA-MB-231 tumor-bearing mice; assay: In vivo biodistribution; parameters: species or system mouse; conditions: mean ± SD, n = 3; for Tumor uptake: MDA-MB-231 tumor
Protocol: All animal experiments were done according to the CSIR-IICB Animal Ethics Committee’s rules and regulation. Forty-eight hours before tumor cell implantation, an immunosuppressive drug (cyclosporine-A) was given intraperitoneal (i.p) at a concentration of 30 mg/kg/day. After that, MDA-MB-231 cells (5 × 10^6) 0.2 mL were implanted subcutaneously into the left flanks of the hind leg of BALB/c mice. Thereafter, the same dose of cyclosporine was given i.p. daily up to 2 weeks. Two weeks after inoculation of the tumor cells, when tumors reached ~ 0.5 cm in mean diameter, the tumor-bearing mice were used for biodistribution and imaging studies. Animals were monitored daily and their weights were recorded. Control group of mice received only 0.9 wt% saline. After cell implantation, the growth rate of the breast tumor followed a satisfactory pattern of spheroid shape and tumors are palpable within 2 to 4 weeks. MDA-MB-231 cell implanted mice tumor models were used for biodistribution and planar imaging studies of these radiolabeled new bombesin analogs.
In tissue biodistribution studies, tumor-bearing animals were divided into four groups and well hydrated for 1 h by intraperitoneal administration of saline (0.9%, 2 mL). Three animals per groups were used for biodistribution studies. After that, the radiolabeled new bombesin analogs (^99mTc-BN) were injected intravenously in each animal of each group consequently through the tail vein [24–27]. After 5, 30, 60, and 120 min intravenous administrations of radiolabeled analogs, the animals were sacrificed; blood, heart, lung, liver, kidney, stomach, intestine, spleen, pancreas, brain, muscle, and tumor were excised, weighed, and counted for radioactivity. The organ uptake was calculated as a percentage of the injected activity per gram of wet tissue (%IA/g). In order to evaluate whether binding of bombesin analogs to MDA-MB-231 cells in vivo is specific; blocking studies with ^99mTc-labeled bombesin analogs in tumor-bearing mice were carried out. Groups of three animals were injected 0.03 nmol of ^99mTc-labeled BN analogs (2 MBq) with 25 nmol of non-radiolabeled BN peptide. After 60 min and 120 min, mice were sacrificed and the organs were collected. Each organ was weighed and counted in a gamma counter along with activity standard and percentage of injected activity per gram (%IA/g) of tissue was calculated for each type of tissues. Counts were corrected for background radiation and physical decay of the radioactivity. The uptake was expressed in the percentage of injected activity per gram of each organ (%IA/g). Data were analyzed statistically by the t test, with the level of significance set at P < 0.05.

physchem = format: physicochemical; conditions: pH 7.4
Protocol: Lipophilicity of the HPLC-purified radiopeptide analogs was determined through octanol/water partition coefficients, determined at pH 7.4 by measuring the distribution of the HPLC purified radiolabeled peptides in 1-octanol and PBS. Then, 50 μL HPLC purified ^99mTc-BN1/^99mTc-BN2/^99mTc-BN3/^99mTc-BN4/^99mTc-BNS with 100 μCi of radiolabeled compound in PBS was added to a to a centrifuge tube containing 1 mL n-octanol and 1 mL PBS (0.025 M, pH 7.4). The tube was vortexed at room temperature for 2 min and they are centrifuged at 5000 rpm for 5 min to ensure complete separation of layers. Further, 100 μL of each phase was transferred into a separate pre-weighed vial and measured in the well γ-counter. The ratio of octanol layer counts to aqueous layer counts was expressed as the distribution coefficient (D, the appropriate descriptor for ionizable compounds) and logD was used for determination of lipophilicity. Counts per unit weight of the sample were calculated, and logD value as calculated as follows:
log10D = log10 [(cpm in octanol – cpm in background) / (cpm in buffer – cpm in background)]

in vitro = in vitro ADME; conditions: rat
Protocol: An aliquot (100 μL) of ^99mTc-BN1/^99mTc-BN2/^99mTc-BN3/^99mTc-BN4/^99mTc-BNS was added to 1 mL of freshly collected rat serum in centrifuge tube. The mixture was then incubated at 37 °C for 1 h; the serum protein was precipitated by adding 1 mL trichloroacetic acid (10%, V/V). The supernatant and precipitate were separated by centrifugation at 3000 rpm for 5 min. Radioactivities of both the phases were measured separately. The above experimental procedure was repeated three times. The percentage of protein binding was determined as: Plasma protein binding % = (precipitate counts (CPM) / [precipitate counts (CPM) + plasma counts (CPM)]) × 100%.

[2] = 60 min p.i., blocked with excess non-radiolabeled BN peptide

“^99mTc-HYNIC-Pro-Asp-[Tyr^13Met^14]BN(7-14)NH2 [99mTc-BN2]” gave a Tumor uptake ([1]; 5 min p.i., i.v.) of 0.79 ± 0.12 %IA/g, a Blood uptake ([1]; 5 min p.i., i.v.) of 1.03 ± 0.05 %IA/g and a Heart uptake ([1]; 5 min p.i., i.v.) of 0.59 ± 0.02 %IA/g. For the same substance, the Intestine uptake ([1]; 5 min p.i., i.v.) was 0.73 ± 0.03 %IA/g, the Kidney uptake ([1]; 5 min p.i., i.v.) was 2.05 ± 0.10 %IA/g and the Liver uptake ([1]; 5 min p.i., i.v.) was 1.47 ± 0.07 %IA/g. It also gave a Lung uptake ([1]; 5 min p.i., i.v.) of 0.91 ± 0.04 %IA/g, a Muscle uptake ([1]; 5 min p.i., i.v.) of 0.24 ± 0.01 %IA/g and a Pancreas uptake ([1]; 5 min p.i., i.v.) of 0.95 ± 0.01 %IA/g. For the same substance, the Spleen uptake ([1]; 5 min p.i., i.v.) was 0.95 ± 0.04 %IA/g, the Stomach uptake ([1]; 5 min p.i., i.v.) was 0.74 ± 0.03 %IA/g and the “Urine + urinary bladder uptake” value ([1]; 5 min p.i., i.v.) was 0.56 ± 0.02 %IA/g. It also gave a Tumor uptake ([1]; 30 min p.i., i.v.) of 1.85 ± 0.05 %IA/g, a Blood uptake ([1]; 30 min p.i., i.v.) of 0.78 ± 0.03 %IA/g and a Heart uptake ([1]; 30 min p.i., i.v.) of 0.46 ± 0.01 %IA/g. The Intestine uptake ([1]; 30 min p.i., i.v.) was 1.05 ± 0.05 %IA/g, the Kidney uptake ([1]; 30 min p.i., i.v.) was 4.76 ± 0.20 %IA/g and the Liver uptake ([1]; 30 min p.i., i.v.) was 1.23 ± 0.06 %IA/g. For the same substance, the Lung uptake ([1]; 30 min p.i., i.v.) was 0.89 ± 0.11 %IA/g, the Muscle uptake ([1]; 30 min p.i., i.v.) was 0.20 ± 0.02 %IA/g and the Pancreas uptake ([1]; 30 min p.i., i.v.) was 2.07 ± 0.10 %IA/g. For the same substance, the Spleen uptake ([1]; 30 min p.i., i.v.) was 0.75 ± 0.03 %IA/g, the Stomach uptake ([1]; 30 min p.i., i.v.) was 1.01 ± 0.05 %IA/g and the “Urine + urinary bladder uptake” value ([1]; 30 min p.i., i.v.) was 1.92 ± 0.07 %IA/g. For the same substance, the Tumor uptake [1, 2] was 0.78 ± 0.03 %IA/g, the Blood uptake [1, 2] was 0.38 ± 0.01 %IA/g and the Heart uptake [1, 2] was 0.27 ± 0.02 %IA/g. For the same substance, the Intestine uptake [1, 2] was 1.25 ± 0.02 %IA/g, the Kidney uptake [1, 2] was 3.37 ± 0.10 %IA/g and the Liver uptake [1, 2] was 1.09 ± 0.04 %IA/g. The Lung uptake [1, 2] was 0.73 ± 0.04 %IA/g, the Muscle uptake [1, 2] was 0.20 ± 0.02 %IA/g and the Pancreas uptake [1, 2] was 0.85 ± 0.02 %IA/g. For the same substance, the Spleen uptake [1, 2] was 0.45 ± 0.03 %IA/g, the Stomach uptake [1, 2] was 0.70 ± 0.02 %IA/g and the “Urine + urinary bladder uptake” value [1, 2] was 4.50 ± 0.08 %IA/g. For the same substance, the Tumor uptake ([1]; 60 min p.i., i.v.) was 0.98 ± 0.04 %IA/g, the Blood uptake ([1]; 60 min p.i., i.v.) was 0.35 ± 0.01 %IA/g and the Heart uptake ([1]; 60 min p.i., i.v.) was 0.23 ± 0.12 %IA/g. For the same substance, the Intestine uptake ([1]; 60 min p.i., i.v.) was 1.46 ± 0.02 %IA/g, the Kidney uptake ([1]; 60 min p.i., i.v.) was 3.34 ± 0.16 %IA/g and the Liver uptake ([1]; 60 min p.i., i.v.) was 1.01 ± 0.05 %IA/g. The Lung uptake ([1]; 60 min p.i., i.v.) was 0.78 ± 0.03 %IA/g, the Muscle uptake ([1]; 60 min p.i., i.v.) was 0.18 ± 0.03 %IA/g and the Pancreas uptake ([1]; 60 min p.i., i.v.) was 1.08 ± 0.05 %IA/g. For the same substance, the Spleen uptake ([1]; 60 min p.i., i.v.) was 0.48 ± 0.02 %IA/g, the Stomach uptake ([1]; 60 min p.i., i.v.) was 0.82 ± 0.04 %IA/g and the “Urine + urinary bladder uptake” value ([1]; 60 min p.i., i.v.) was 4.54 ± 0.22 %IA/g. It also gave a Tumor uptake ([1]; 120 min p.i., i.v.) of 0.54 ± 0.02 %IA/g, a Blood uptake ([1]; 120 min p.i., i.v.) of 0.07 ± 0.01 %IA/g and a Heart uptake ([1]; 120 min p.i., i.v.) of 0.12 ± 0.01 %IA/g. The Intestine uptake ([1]; 120 min p.i., i.v.) was 0.18 ± 0.01 %IA/g, the Kidney uptake ([1]; 120 min p.i., i.v.) was 2.45 ± 0.12 %IA/g and the Liver uptake ([1]; 120 min p.i., i.v.) was 0.53 ± 0.02 %IA/g. It also gave a Lung uptake ([1]; 120 min p.i., i.v.) of 0.42 ± 0.02 %IA/g, a Muscle uptake ([1]; 120 min p.i., i.v.) of 0.12 ± 0.04 %IA/g and a Pancreas uptake ([1]; 120 min p.i., i.v.) of 0.89 ± 0.04 %IA/g. For the same substance, the Spleen uptake ([1]; 120 min p.i., i.v.) was 0.24 ± 0.11 %IA/g, the Stomach uptake ([1]; 120 min p.i., i.v.) was 0.41 ± 0.02 %IA/g and the “Urine + urinary bladder uptake” value ([1]; 120 min p.i., i.v.) was 5.55 ± 0.03 %IA/g. The logD (physchem) was “− 1.78 ± 0.04” and the “Percentage of plasma protein binding” value (in vitro) was 41.23%.
